# In patent publication US20250215059A1:
# Experiments:
# [1] = molecular target: tau aggregates in HEK293 tau biosensor cells (4R repeat domain of tau (K18) with the P301S mutation fused to CFP or YFP, seeded with clarified tau mouse brain homogenate) (UniProt P10636); assay: Halo (JF646) imaging; intensity in aggregate over adjacent region, five aggregates
# [2] = molecular target: tau aggregates in HEK293 tau biosensor cells (4R repeat domain of tau (K18) with the P301S mutation fused to CFP or YFP, seeded with clarified tau mouse brain homogenate) (UniProt P10636); assay: Halo imaging, colocalization with cytoplasmic tau aggregates, 5 images
# [3] = molecular target: tau aggregates in HEK293 tau biosensor cells (4R repeat domain of tau (K18) with the P301S mutation fused to CFP or YFP, seeded with clarified tau mouse brain homogenate) (UniProt P10636); assay: Halo (JF646) imaging in seeded HEK293 tau biosensor cells; mean Halo intensity in aggregates over that of the compartment
# [4] = molecular target: tau aggregates in HEK293 tau biosensor cells (4R repeat domain of tau (K18) with the P301S mutation fused to CFP or YFP, seeded with clarified tau mouse brain homogenate) (UniProt P10636); assay: Halo imaging, colocalization with cytoplasmic tau aggregates (FIG. 5D)
# [5] = molecular target: tau aggregates in HEK293 tau biosensor cells (4R repeat domain of tau (K18) with the P301S mutation fused to CFP or YFP, seeded with clarified tau mouse brain homogenate) (UniProt P10636); assay: Halo (JF646) imaging; intensity in aggregate over adjacent region, 5 aggregates
# Sequence of tau aggregates in HEK293 tau biosensor cells (4R repeat domain of tau (K18) with the P301S mutation fused to CFP or YFP, seeded with clarified tau mouse brain homogenate) (P10636 561-689 P618S): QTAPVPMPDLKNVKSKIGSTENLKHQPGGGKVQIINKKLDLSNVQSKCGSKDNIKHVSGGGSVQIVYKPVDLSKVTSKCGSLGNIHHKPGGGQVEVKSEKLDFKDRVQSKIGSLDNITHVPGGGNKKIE
mean enrichment in cytoplasmic tau aggregates [1],percentage of cytoplasmic tau aggregates positive for the construct [2] [%],mean enrichment in tau aggregates [3],percentage of cytoplasmic tau aggregates with recruitment [4] [%],mean enrichment in cytoplasmic tau aggregates [5],Substance
2.5,–,–,–,–,Frag_1-Halo (SRRM2 a.a. 2606-2752)
–,62,2.57,–,–,SRRM2_FL-Halo (from UniProt Q9UQ35 1-2748)
4.3,98,–,> 90,–,Frag_2-Halo (SRRM2 a.a. 2458-2752)
–,96,–,> 90,5.46,42-polyserine-halo
–,–,–,–,1.19,Halo tagged 20 serine repeat
